# Laboratory results from publication PMC10776854.
# B1: MARCH6-FLAG WT [human] / SQLE [human (endogenous in K562)] (parent)
# chain 1: MDTAEEDICRVCRSEGTPEKPLYHPCVCTGSIKFIHQECLVQWLKHSRKEYCELCKHRFAFTPIYSPDMPSRLPIQDIFAGLVTSIGTAIRYWFHYTLVAFAWLGVVPLTACRIYKCLFTGSVSSLLTLPLDMLSTENLLADCLQGCFVVTCTLCAFISLVWLREQIVHGGAPIWLEHAAPPFNAAGHHQNEAPAGGNGAENVAADQPANPPAENAVVGENPDAQDDQAEEEEEDNEEEDDAGVEDAADANNGAQDDMNWNALEWDRAAEELTWERMLGLDGSLVFLEHVFWVVSLNTLFILVFAFCPYHIGHFSLVGLGFEEHVQASHFEGLITTIVGYILLAITLIICHGLATLVKFHRSRRLLGVCYIVVKVSLLVVVEIGVFPLICGWWLDICSLEMFDATLKDRELSFQSAPGTTMFLHWLVGMVYVFYFASFILLLREVLRPGVLWFLRNLNDPDFNPVQEMIHLPIYRHLRRFILSVIVFGSIVLLMLWLPIRIIKSVLPNFLPYNVMLYSDAPVSELSLELLLLQVVLPALLEQGHTRQWLKGLVRAWTVTAGYLLDLHSYLLGDQEENENSANQQVNNNQHARNNNAIPVVGEGLHAAHQAILQQGGPVGFQPYRRPLNFPLRIFLLIVFMCITLLIASLICLTLPVFAGRWLMSFWTGTAKIHELYTAACGLYVCWLTIRAVTVMVAWMPQGRRVIFQKVKEWSLMIMKTLIVAVLLAGVVPLLLGLLFELVIVAPLRVPLDQTPLFYPWQDWALGVLHAKIIAAITLMGPQWWLKTVIEQVYANGIRNIDLHYIVRKLAAPVISVLLLSLCVPYVIASGVVPLLGVTAEMQNLVHRRIYPFLLMVVVLMAILSFQVRQFKRLYEHIKNDKYLVGQRLVNYERKSGKQGSSPPPPQSSQE
# chain 2: MWTFLGIATFTYFYKKFGDFITLANREVLLCVLVFLSLGLVLSYRCRHRNGGLLGRQQSGSQFALFSDILSGLPFIGFFWAKSPPESENKEQLEARRRRKGTNISETSLIGTAACTSTSSQNDPEVIIVGAGVLGSALAAVLSRDGRKVTVIERDLKEPDRIVGEFLQPGGYHVLKDLGLGDTVEGLDAQVVNGYMIHDQESKSEVQIPYPLSENNQVQSGRAFHHGRFIMSLRKAAMAEPNAKFIEGVVLQLLEEDDVVMGVQYKDKETGDIKELHAPLTVVADGLFSKFRKSLVSNKVSVSSHFVGFLMKNAPQFKANHAELILANPSPVLIYQISSSETRVLVDIRGEMPRNLREYMVEKIYPQIPDHLKEPFLEATDNSHLRSMPASFLPPSSVKKRGVLLLGDAYNMRHPLTGGGMTVAFKDIKLWRKLLKGIPDLYDDAAIFEAKKSFYWARKTSHSFVVNILAQALYELFSATDDSLHQLRKACFLYFKLGGECVAGPVGLLSVLSPNPLVLIGHFFAVAIYAVYFCFKSEPWITKPRALLSSGAVLYKACSVIFPLIYSEMKYMVH
# Variants of: B1
# Test: FLAG-immunoprecipitation, Western blot densitometry
# Settings: with SQLE [human (endogenous in K562)], K562 cells expressing MARCH6-FLAG, eight independent biological replicates, parent: 0.55, read off a plot
row,Variant,response (SQLE/MARCH6 ratio)
1,chain 1 Y92V,0.89
2,chain 1 L140A L747A,0.5

# Continued, values first:
row,response (SQLE/MARCH6 ratio),Variant
1,0.24,chain 1 Y96V
2,0.27,chain 1 Y92V Y96V
